Consider seven molecules from PMC7919490, “Effect of C-terminus Conjugation via Different Conjugation Chemistries on In Vivo Activity of Albumin-Conjugated Recombinant GLP-1” (Pharmaceutics, 2021).

For data set [1] the following is noted: cited from earlier work. The source says:
Although GLP-1 exerts significant effects in an individual’s body, its short half-life is a significant drawback. Many studies have been conducted in effort to overcome the hurdles of GLP-1 and to develop it as a medication. Traditional efforts to increase the size of small therapeutic proteins have included polyethylene glycol (PEG) conjugation. […] The in vitro activity of GLP1_8A37C-HSA was greater than that of GLP1_8G37C-HSA, probably due to the alanine to glycine change at position 8 (A8G) affecting the interactions with GLP-1R. […] Despite the low EC50 value of GLP1_ ...

A further data set concerns the target GLP-1 receptor (GLP-1R) (UniProt P43220).
The next data set addresses T1, GLP-1R (Homo sapiens, UniProt P43220).
T1 construct: Tango fusion cassette (named only as '_tango' in the plasmid name); host or cells: HEK293 (ATCC), transiently transfected
The data set is described as follows: In vitro activity assay: cAMP production by GLP-1R-overexpressing HEK-293 cells. The format is cell-based. The following applies: HEK293 cells transfected with pcDNA3.1-GLP-1R_tango; 15 min exposure; cAMP Parameter Assay Kit; normalized to cAMP with 1 μM GLP1_C; dose-response fit in OriginPro; n = 3/group. The procedure:
The plasmid pcDNA3.1-GLP-1R_tango (Addgene, Cambridge, MA, USA) and transfection reagent were then mixed in serum-free medium for 20 min, in accordance with the manufacturer’s recommendation. […] The levels of cAMP in the cell lysate were measured using the cAMP Parameter Assay Kit following the manufacturer’s protocol. […] The half maximal effective concentrations (EC50) of each curve were estimated from a dose–response curve using OriginPro software. Absorbance at 450 nm was monitored using a Varioskan Lux microplate reader (Thermo Fisher Scientific).

T1 sequence (P43220 24-463): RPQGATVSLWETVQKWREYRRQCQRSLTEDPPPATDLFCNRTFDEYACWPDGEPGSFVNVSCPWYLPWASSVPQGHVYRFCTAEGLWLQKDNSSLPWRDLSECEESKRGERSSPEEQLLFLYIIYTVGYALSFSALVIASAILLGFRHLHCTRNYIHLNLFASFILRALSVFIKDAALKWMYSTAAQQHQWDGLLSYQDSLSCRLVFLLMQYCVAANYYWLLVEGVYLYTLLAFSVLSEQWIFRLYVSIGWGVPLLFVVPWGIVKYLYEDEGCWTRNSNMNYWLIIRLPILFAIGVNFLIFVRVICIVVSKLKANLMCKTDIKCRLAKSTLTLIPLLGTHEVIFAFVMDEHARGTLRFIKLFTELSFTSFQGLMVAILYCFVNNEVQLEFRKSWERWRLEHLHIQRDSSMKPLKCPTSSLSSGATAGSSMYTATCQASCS
Chain of GLP-1 receptor (GLP-1R) (P43220 24-463): as above

Take `CC[C@H](C)[C@H](NC(=O)[C@H](Cc1ccccc1)NC(=O)[C@H](CCC(=O)O)NC(=O)[C@H](CCCCN)NC(=O)[C@H](C)NC(=O)[C@H](C)NC(=O)[C@H](CCC(N)=O)NC(=O)CNC(=O)[C@H](CCC(=O)O)NC(=O)[C@H](CC(C)C)NC(=O)[C@H](Cc1ccc(O)cc1)NC(=O)[C@H](CO)NC(=O)[C@H](CO)NC(=O)[C@@H](NC(=O)[C@H](CC(=O)O)NC(=O)[C@H](CO)NC(=O)[C@@H](NC(=O)[C@H](Cc1ccccc1)NC(=O)[C@@H](NC(=O)CNC(=O)[C@H](CCC(=O)O)NC(=O)[C@H](C)NC(=O)[C@@H](N)Cc1c[nH]cn1)[C@@H](C)O)[C@@H](C)O)C(C)C)C(=O)N[C@@H](C)C(=O)N[C@@H](Cc1c[nH]c2ccccc12)C(=O)N[C@@H](CC(C)C)C(=O)N[C@H](C(=O)N[C@@H](CCCNC(=N)N)C(=O)NCC(=O)N[C@@H](CCCNC(=N)N)C(=O)NCC(=O)O)C(C)C` [GLP1_C]: the plasma half-life result in data set [1] (in animal) is “only a few minutes in animal”.

Take “GLP1_8A37C-HSA (from UniProt P02768 25-609)”: in the data set with GLP-1 receptor (GLP-1R), the EC50 of cAMP production by GLP-1R-overexpressing HEK-293 cells was 0.185 µM.

In turn, “GLP1_8A37C-HSA: GLP1-HSA conjugate with alanine at position 8 and albumin at its C-terminus (HAEGTFTSDVSSYLEGQAAKEFIAWLVRGRC; not fully specified; GLP-1(7-37), Ala8 kept, G37C; Cys37 is joined through TET-PEG4-maleimide / TCO-maleimide (IEDDA) to Cys34 of human serum albumin (carrier, UniProt P02768 25-609, not included))” showed an EC50 with GLP-1R of 0.185 µM.

“GLP1_8G16AzF-HSA: GLP1-HSA conjugate generated by HSA conjugation to position 16 of GLP-1 via SPAAC (HGEGTFTSDFSSYLEGQAAKEFIAWLVRGRG; not fully specified; GLP-1(7-37) A8G; Residue 16 (entry position 10) is p-azido-L-phenylalanine, written as parent Phe, joined by SPAAC through DBCO-PEG4-maleimide to Cys34 of human serum albumin (carrier, UniProt P02768)” displayed an EC50 with GLP-1R of 1.11 µM.

“GLP1_8G37C-HSA (from UniProt P02768 25-609)” returned an EC50 of cAMP production by GLP-1R-overexpressing HEK-293 cells in the data set with GLP-1 receptor (GLP-1R) of 1.34 µM.

On to “GLP1_8G37C-HSA: GLP1-HSA conjugate, HSA conjugated to GLP1_8G37C via Michael addition and IEDDA (HGEGTFTSDVSSYLEGQAAKEFIAWLVRGRC; not fully specified; GLP-1(7-37) A8G, G37C; Cys37 is joined through TET-PEG4-maleimide / TCO-maleimide (IEDDA) to Cys34 of human serum albumin (carrier, UniProt P02768 25-609, not included); K34R is inferred from the expe)”, for which, in the data set with GLP-1R, a half-maximal effect (EC50) was put at 1.34 µM.

On to Glucagon-like peptide-1 [GLP-1], for which the “half-life in the body” value in data set [1] (reported, reference not given) was 2 to 3 min.
